Molecular target: F5_SusD-like protein (uncultured human gut Bacteroides strain)
Experiment: SEC; Superdex 200 16/600 column; 20 mM Tris-HCl, 150 mM NaCl, pH 7.5

- stoichiometry N: 2
Substance: F5_SusD-like protein (natural protein)

From publication PMC9599597
